Entries after “also recorded” stand apart in the source; their conditions may differ.
Tests used:
[1] = tested on: PMN transepithelial migration; assay: PMN transepithelial migration; format: cell-based, human
JAML D1 domain = molecular target: T1, JAML D1 domain (Homo sapiens, UniProt Q86YT9); assay: Domain specificity ELISA on sJAML-His, sJAML.D1-Fc, sJAML.D2-Fc; format: binding; settings: sJAML.D2-Fc coated, FIG. 1B
T1 construct: made in house; host or cells: HEK293T
T1 sequence (Q86YT9 20-140): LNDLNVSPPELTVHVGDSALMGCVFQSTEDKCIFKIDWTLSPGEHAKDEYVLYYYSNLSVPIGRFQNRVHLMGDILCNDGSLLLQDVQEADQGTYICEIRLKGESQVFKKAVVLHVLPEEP
Description: FIG. 1B. sJAML-His and purified soluble, mutant fragments of JAML, tagged with rabbit Fc (membrane distal Ig loop: sJAML.D1-Fc and membrane proximal Ig loop: sJAML.D2-Fc) were coated on Immulon II microtiter wells overnight at 4° C. After blocking and washing, antibodies were added to wells for 1 hour and the assay developed with HRP conjugated goat anti mouse Ig (H+L). After addition of ABTS, microtiter wells were analyzed in a microtiter plate reader at 405 nm wavelength. M3 is polyclonal mouse serum collected from the sJAML-His immunized mouse before the fusion. 9E10 anti Myc was used as control.
To determine the domain specificity of monoclonal antibodies, soluble full length JAML.D1D2-His (sJAML-His), truncated extracellular fragments: soluble membrane distal fragment JAML.D1-Fc (sJAML.D1-Fc), and soluble membrane proximal fragment JAML.D2-Fc (sJAML.D2-Fc), both tagged with rabbit Fc, were generated and tested for antibody binding. […] Polyclonal serum (M3) was collected from the immunized mouse prior the fusion and was used as the positive control in the binding assay.

B1: DW100: monoclonal anti-human JAML antibody (IgG1,κ), hybridoma ATCC PTA-13051; VH SEQ ID NO:19, VL SEQ ID NO:22 (antibody, V domains shown)
VH: DVQLVESGAELVRPGASKLSCKALAYTFTDYEMHWVKQTPVHGLEWIGIIHPGSGGTVYNQKFKGKATLTADKSSSTAYMELSSLTSEDSTVYYCTRRRYYGSSYNWYFDVWGAGN
VL: VLTQSPASLAASVGETVTITCRASENIYYSLAWYQQKQGKSPQLLIYNANSLEDGVPSRFSGSGSGTQYSLKINSMQPEDTATYFCEQTYDVPLTFGAGTKLEL
Which results are given for B1?
inhibitory effect on PMN transepithelial migration [1]: ~15%; JAML domain bound (JAML D1 domain): binds the D1 domain of JAML; also recorded: specifically binds JAML D1 domain
